The nature of this series: yeast display, Sf9 membrane polyspecificity reagent, FACS + sequencing; frameworks hold sequencing errors. The essentials: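 After 36–48 hours of galactose induction, yeast (Saccharomyces cerevisiae BJ5465) displaying a synthetic nanobody library were stained at 4 °C for 1 hour with 10% biotinylated, detergent-solubilized Sf9 membrane reagent. Streptavidin microbeads enriched the stained cells before FACS sorting into low and high (top ~1%) gates on anti-HA and streptavidin fluorescence. Each clone's polyreactivity label reflects its gate of origin.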
Consider “QVQLVESGGGLVQAGGSLRLSCAASGSTFPNYPMGWYRQAPGKERELVAAITWSGGSTDYADSVKGRFTISRDNAKNTVYLQMNSLKPEDTAVYYCNADFGYWWDGRRYDYWGQGTQVTVSS”, for which the “polyreactivity (PSR sort gate)” value is recorded as “low polyreactivity”.

Take “QVQLVESGGGLVQAGGSLRLSCAASGSTFPPNAMGRYRQAPGKERELVAAISFSSGRTYYADSVKGRFTFSRDNAKNTVYLQMNSLKPEDTAVYYCAADHGYLGQGTQVTVSS”: the “polyreactivity (PSR sort gate)” value is on record as “low polyreactivity”.

Take “QVQLVESGGGLVQAGGSLRLSCAASGSTFPPNAMGWYRQAPGKERELVAGINGSGGRTYYADSVKGRFTISRDNAKNTVYLQLNCMKPEDTAVYYCAAEGTTIWFDLTYDDWYEYYSWGQGTQVTVSS”: the “polyreactivity (PSR sort gate)” value was “high polyreactivity”.

Regarding “QVQLVESGGGLVQAGGSLRLSCAASGSTFPPYVMGWYRQAPGKERELVAAITWSSGSTYYADSVKGRFTISRDNAKNTVYLQMNSLKPEDTAVYYCAAKWLGYGFDYWGQGTQVTVSS”, the “polyreactivity (PSR sort gate)” value is “low polyreactivity”.

For “QVQLVESGGGLVQAGGSLRLSCAASGSTFPRNAMGWYRQAPGKERELVATITSSGGGTYYADSVKGRFTISRDNAKNTVYLQMNSLKPEDTAVYYCNVEVHPYYWVDNFHRFPVLHNYWGQGTQVTVSA”, the “polyreactivity (PSR sort gate)” value was “low polyreactivity”.

As to “QVQLVESGGGLVQAGGSLRLSCAASGSTFPRNDMGWYRQAPGKERELVAAISRGGSTNNADSVKGRFTISRDNAKNTVYLQMNSLKPEDTAVYYCAAQIFESAYGMDYWGQGTQVTVSS”, the “polyreactivity (PSR sort gate)” value is “low polyreactivity”.

In the case of “QVQLVESGGGLVQAGGSLRLSCAASGSTFPRYAMGWYRPAPGKERELVARISNSGASTYYADSVKGRFTISRDNAKNTVYLQMNSLKPEDTAVYYCNARRYSRPSGFKHYHYAESDYWGQGTQVTVSS”, the “polyreactivity (PSR sort gate)” value was “high polyreactivity”.

With “QVQLVESGGGLVQAGGSLRLSCAASGSTFPSNAMGWYRQAPGKERELVAAISSGGRTYYADSVKGRFTISRDNAKNTVYLQMNSLKPEDTAVYYCAADTDRRSPFDYWGQGTQVTVSS”, the “polyreactivity (PSR sort gate)” value is “high polyreactivity”.

As to “QVQLVESGGGLVQAGGSLRLSCAASGSTFPSNVMGWNRQAPVKERELVAAITWSGVRTYYADSVKGRFTISRDNAKNTVYLQMNSLKPEDTAVYYCAARSTYVRYDYWGQGTQVTVSS”, the “polyreactivity (PSR sort gate)” value is “high polyreactivity”.

As for “QVQLVESGGGLVQAGGSLRLSCAASGSTFPSYAMGWSRQAPGKERELVAAISRSGGSTYYADSVKGRFTISRDNAKNTVYLQMISLKPEDTAVYYCAARGHLRYESDYWGQGTQVTVSS”, the “polyreactivity (PSR sort gate)” value is listed as “high polyreactivity”.

“QVQLVESGGGLVQAGGSLRLSCAASGSTFPSYAMGWYRQAPGKERELVAAINSGGGTNYADSVKGRFTISRDTAKNTVYLQMNSLKPEDTAVYYCAKARYDYTKPEGGYWGQGTHVTVSS”: the “polyreactivity (PSR sort gate)” value is listed as “low polyreactivity”.

Consider “QVQLVESGGGLVQAGGSLRLSCAASGSTFPSYAMGWYRQAPGKERELVAAISGSGTSTYYADSVKGRFTISRDNAKNTVYLQMNSRKPEDTAVYYCRAVWLSTYLGWGRDYWGQGTQVTVSS”, for which the “polyreactivity (PSR sort gate)” value was “high polyreactivity”.

Take “QVQLVESGGGLVQAGGSLRLSCAASGSTFPWNAMGWYRQAPGKERELVAAINYGNGSTYYADSVKGRFTISRDNAKNTVYLQMNSLKPVDTAVYYCNADFTGTRSDSVTPEYEYWGQGTQVTVSS”: the “polyreactivity (PSR sort gate)” value is reported as “low polyreactivity”.

Regarding “QVQLVESGGGLVQAGGSLRLSCAASGSTFPWYVMGWYRQAPGKERELVAAISWSGGRTYYADSVKGRFTISRDNAKNTVYLQMNSLKPEDTAVYYCAADLSYWRGGHSRNYWGQGTQVTVSS”, the “polyreactivity (PSR sort gate)” value is “low polyreactivity”.

For the sequence “QVQLVESGGGLVQAGGSLRLSCAASGSTFPYNAMGCDRQAAGKERELVAAISFSGGITTYADSVKGRFTISRDNAKNTVYLQMNSLKPEDTAVYYCNVAYTLHFGYWGQGTQVTVSS”, the “polyreactivity (PSR sort gate)” value is “low polyreactivity”.

In the case of “QVQLVESGGGLVQAGGSLRLSCAASGSTFPYNAMGWYRQAPGKERELVAAITSSGRTNYADSVKGRFTITLDNAKNTVYLQMNSLKPEDTAVYYCAAGRWYAHRVDYWGQGSQVTVSS”, the “polyreactivity (PSR sort gate)” value is “low polyreactivity”.

In the case of “QVQLVESGGGLVQAGGSLRLSCAASGSTFPYNAMGWYRQAPGKERELVAAITWRAGRTYYADSVKGRFTISRDNAKNTVYLQMNSLKPEDTAVYYCAKSYQRGVNHYEYWGQGTQVTVSS”, the “polyreactivity (PSR sort gate)” value is recorded as “high polyreactivity”.

As to “QVQLVESGGGLVQAGGSLRLSCAASGSTFPYNAMGWYRQAPGKERELVAANTFSGGSTYYADSVKGRFTISRDNAKNTVYLQMNSLKPEDTAVYYCNARYPWWGQRYDYWGQGTQVTVSS”, the “polyreactivity (PSR sort gate)” value is “low polyreactivity”.

Turning to “QVQLVESGGGLVQAGGSLRLSCAASGSTFPYNAMGWYSPAPGKERELVAAITSAGGTNYADSVKGRFTISRDNATNTVYLQMNSLKPEDTAVYYCAADGSGYYDWYYYWGQGTQVTVSS”, the “polyreactivity (PSR sort gate)” value is “low polyreactivity”.

Turning to “QVQLVESGGGLVQAGGSLRLSCAASGSTFPYYALGWSRQAPGKEREFVATISSSGGSTYYADSVKGRFTISRDNAKNTVYLQMNSLKPEDTAVYYCAARYQTSGFRYRYGYWGQGTQVTVSS”, the “polyreactivity (PSR sort gate)” value is reported as “high polyreactivity”.

Regarding “QVQLVESGGGLVQAGGSLRLSCAASGSTFPYYAMGWYRQAPGKERELVAAISRGDSTNYADSVKGRFTISRDNAKNTVYLQMNSLKPEDTAVYYCAARLQYRRTSVKYYYWGQGTQVTVSS”, the “polyreactivity (PSR sort gate)” value was “high polyreactivity”.

Consider “QVQLVESGGGLVQAGGSLRLSCAASGSTFPYYAMGWYRQAPGKERELVAAISRRGGSTYYADSVKGRFTISRDNAKNTVYLQMNSLKPEDTAVYYCAAGYYPSSSGDDYWGQGTQVTVSS”, for which the “polyreactivity (PSR sort gate)” value is recorded as “high polyreactivity”.

Regarding “QVQLVESGGGLVQAGGSLRLSCAASGSTFPYYAMGWYRQAPGKERELVAAITSSASTYYADSVKGRFTISRDNAKNTVYLQMNSLKPEDTAVYYCAVRSPYRLSRWRVGYWGQGTQVTVSS”, the “polyreactivity (PSR sort gate)” value is listed as “high polyreactivity”.

Regarding “QVQLVESGGGLVQAGGSLRLSCAASGSTFPYYAMGWYRQAPGKERELVARISSGSSTNYADSVKGRFTISRDNAKNTVYLQMNSLKPEDTAVYYCAARYTARRQSYGYWGQGTQVTVSS”, the “polyreactivity (PSR sort gate)” value was “high polyreactivity”.

As for “QVQLVESGGGLVQAGGSLRLSCAASGSTFPYYGMGWYRQAPGKERDLVAVISRRGTGTYYADSVKGRFTISRDNAKNTVYLQMNSLKPEDTAVYYCNTDTHGPGPTFDHYDYWGQGTQVTVSS”, the “polyreactivity (PSR sort gate)” value is “low polyreactivity”.

“QVQLVESGGGLVQAGGSLRLSCAASGSTFPYYVMGWYRQAPGKERELVAAISKSGGSTYYADSVKGRFTISRDNEKNTVYLQMNSLKPEDTAVYYCAKSYRSSRRYNYWGQDTQVTVSS”: the “polyreactivity (PSR sort gate)” value is recorded as “high polyreactivity”.

In the case of “QVQLVESGGGLVQAGGSLRLSCAASGSTFQANTMGWYRQAPGKERELVAAISIRGANTYYADSVKGRFTISRDNAKNTVYLQMNSLKPEDTAVYYCATRVRKYSLRLDYWGQGTQVTVSS”, the “polyreactivity (PSR sort gate)” value was “high polyreactivity”.

As to “QVQLVESGGGLVQAGGSLRLSCAASGSTFQFYAMGWSRQAPGKERELVATISSGDSTNYADSVKGRFTISRDNAKNTVYLQMNSLKPEDTAVYYCAADFWGQYQGLDGGDYWGQGTQVTVSS”, the “polyreactivity (PSR sort gate)” value is “low polyreactivity”.

On to “QVQLVESGGGLVQAGGSLRLSCAASGSTFQFYAMGWYRHAPGKERELVAAIDGSDGDTYYADSVKGRFTISRDNAKNTVYLQMNSLKPEDTAVYYCNADRDALVGYDYDYWGQGTQVTVSS”, for which the “polyreactivity (PSR sort gate)” value is listed as “low polyreactivity”.

In the case of “QVQLVESGGGLVQAGGSLRLSCAASGSTFQFYAMGWYRQAPGKEREFVAAITTRSGSTYYADSVKGRFTISRDNAKNTVYLQMNSLKPEDTAVYYCAAYIYGHSSDSVRYEYWGQGTQVTVSS”, the “polyreactivity (PSR sort gate)” value is “low polyreactivity”.

“QVQLVESGGGLVQAGGSLRLSCAASGSTFQGYAMGWYRQAPGNERELVAAISRRGGSTYYADSVKGRFTISRDNAKNTVYFQKNSLKPEDTAVYYCNAVVRTIVLYYWGQGTQVTVSS”: the “polyreactivity (PSR sort gate)” value is reported as “high polyreactivity”.

On to “QVQLVESGGGLVQAGGSLRLSCAASGSTFQLYAMGWYRQAPGKERELVAAISGIGDSTYYADSVKGRFTISRDNAKNTVYLQMNSLKPEDTAVYYCAREFSDGLSGKFDYWGQGTQVTVSS”, for which the “polyreactivity (PSR sort gate)” value is on record as “low polyreactivity”.

On to “QVQLVESGGGLVQAGGSLRLSCAASGSTFQPYAMGWYRQAPGKEREFVATISGSAGSTYYADSVKGRFKISRDNAKNTVYLLMNSLKPEDTAVYYCNADSGWFGYDYWGQGTQVTVSS”, for which the “polyreactivity (PSR sort gate)” value is recorded as “low polyreactivity”.

Take “QVQLVESGGGLVQAGGSLRLSCAASGSTFQPYTMGWYRQAPGTERELVAAITGRGGSTYYADSVKGRFTISRDNAKNTVYLQMNSLKPEDTAVYYCAAGAYRRNKSDYYYWGQGTQVTVSS”: the “polyreactivity (PSR sort gate)” value was “low polyreactivity”.

With “QVQLVESGGGLVQAGGSLRLSCAASGSTFQRYAMGWYRQAPGKERELVAAITSGGSTYYADSVKGRFTISRDNAKNTVYLQMNSQKPEDTAVYYCNAAWFYRYGYWGQGTQVTVSS”, the “polyreactivity (PSR sort gate)” value was “high polyreactivity”.

Take “QVQLVESGGGLVQAGGSLRLSCAASGSTFQSNAMGWYRQAPGKERELVAAISSSAGTTFYADSVKGRFTISRDNAKNTVYLQMNSLKPEDTAVYYCAKKDFYFAPSPGYYRSRDYWGQGTQVTVSS”: the “polyreactivity (PSR sort gate)” value is listed as “low polyreactivity”.

For the sequence “QVQLVESGGGLVQAGGSLRLSCAASGSTFQSYAMGWYRQAPGKERELVAAISFSGGSTYYADSVKGRFTNSRDNSKNTVYLQMNSLIPEDTAVYYCAKRGWVYFHGYDYWGQGTQVTVSS”, the “polyreactivity (PSR sort gate)” value was “low polyreactivity”.

As for “QVQLVESGGGLVQAGGSLRLSCAASGSTFQSYAMGWYRQAPGKERELVAGITSGDSTNYADSVKGRFTISRDNAKNTVYLQMNSLKPEDTAVYYCNAVTQARYYYWGQGTQVTVSS”, the “polyreactivity (PSR sort gate)” value is given as “low polyreactivity”.

In the case of “QVQLVESGGGLVQAGGSLRLSCAASGSTFQTYAMGWYRQAPGKERELVAAISFNGGSTYYADSVKGRFTISRDNAKNTVYLQMNSLKPEDTAVYYCAVEYTWASALYDGRHDYWGQGTQVTVSS”, the “polyreactivity (PSR sort gate)” value was “high polyreactivity”.

Turning to “QVQLVESGGGLVQAGGSLRLSCAASGSTFQTYAMGWYRQAPGKERELVAAISRRSGSTYYADSVKGRFTISRDNAKNTVYLQMNSLKPEDTAVYYCAARYVSRRFLGYYYWGQGTQVTVSS”, the “polyreactivity (PSR sort gate)” value is on record as “high polyreactivity”.

As to “QVQLVESGGGLVQAGGSLRLSCAASGSTFQTYVMGWYRQAPGKERELVAAISSGGSTNYADSVKGRFTISRDNAKNTVYLQMNSLKPEDTAVYYCAKRWPYFRRGKDGYWGQGTQVTVSS”, the “polyreactivity (PSR sort gate)” value was “low polyreactivity”.

The values above are taken from the nanobody polyreactivity screen of Harvey et al. (2022).
